{"source": "the supplement of paper PMC10567573", "parents": {"B1": {"name": "MFF (parent)", "chain": "MAEISRIQYEMEYTEGISQRMRVP"}}, "data": [{"variants_of": "B1", "assay": "protein stability index of a GFP-peptide fusion (GPS, HEK-293T) (PSI 1-6); higher = more stable", "details": "c terminus: a fixed tail appended", "values": [{"variant": "MAEISRIQYEMEYTEGISQFMRVP", "note": "[R20F]", "protein stability index": 2.08}, {"variant": "MAEISRIQYEMEYTEGISQDMRVP", "note": "[R20D]", "protein stability index": 3.56}, {"variant": "MAEISRIQYEMEYTEGISQGMRVP", "note": "[R20G]", "protein stability index": 2.14}, {"variant": "MAEISRIQYEMEYTEGISQVMRVP", "note": "[R20V]", "protein stability index": 2.17}, {"variant": "MAEISRIQYEMEYTEGISQRWRVP", "note": "[M21W]", "protein stability index": 1.91}, {"variant": "MAEISRIQYEMEYTEGISQRYRVP", "note": "[M21Y]", "protein stability index": 2.9}, {"variant": "MAEISRIQYEMEYTEGISQRKRVP", "note": "[M21K]", "protein stability index": 3.73}, {"variant": "MAEISRIQYEMEYTEGISQRERVP", "note": "[M21E]", "protein stability index": 3.58}, {"variant": "MAEISRIQYEMEYTEGISQRVRVP", "note": "[M21V]", "protein stability index": 2.79}, {"variant": "MAEISRIQYEMEYTEGISQRRRVP", "note": "[M21R]", "protein stability index": 3.9}, {"variant": "MAEISRIQREMEYTEGISQRMRVP", "note": "[Y9R]", "protein stability index": 2.88}, {"variant": "MAEISRIQSEMEYTEGISQRMRVP", "note": "[Y9S]", "protein stability index": 3.42}, {"variant": "MAEISRIQPEMEYTEGISQRMRVP", "note": "[Y9P]", "protein stability index": 3.57}, {"variant": "MAEISRIQKEMEYTEGISQRMRVP", "note": "[Y9K]", "protein stability index": 2.95}, {"variant": "MAEISRIQWEMEYTEGISQRMRVP", "note": "[Y9W]", "protein stability index": 2.28}, {"variant": "MREISRIQYEMEYTEGISQRMRVP", "note": "[A2R]", "protein stability index": 2.54}, {"variant": "MCEISRIQYEMEYTEGISQRMRVP", "note": "[A2C]", "protein stability index": 2.25}, {"variant": "MLEISRIQYEMEYTEGISQRMRVP", "note": "[A2L]", "protein stability index": 1.86}, {"variant": "MAEISRIQYEREYTEGISQRMRVP", "note": "[M11R]", "protein stability index": 3.19}, {"variant": "MAEISRIQYEAEYTEGISQRMRVP", "note": "[M11A]", "protein stability index": 3.68}, {"variant": "MAEISRIQYEWEYTEGISQRMRVP", "note": "[M11W]", "protein stability index": 1.99}, {"variant": "MAEISRIQYEFEYTEGISQRMRVP", "note": "[M11F]", "protein stability index": 2.35}, {"variant": "MAEISRIQYEMERTEGISQRMRVP", "note": "[Y13R]", "protein stability index": 2.71}, {"variant": "MAEISRIQYEMEDTEGISQRMRVP", "note": "[Y13D]", "protein stability index": 3.95}, {"variant": "MAEISRIQYEMEITEGISQRMRVP", "note": "[Y13I]", "protein stability index": 2.33}, {"variant": "MAEISRIQYEMEPTEGISQRMRVP", "note": "[Y13P]", "protein stability index": 3.69}, {"variant": "MAEISRIQYEMEYTEGMSQRMRVP", "note": "[I17M]", "protein stability index": 2.35}, {"variant": "MAEISRIQYEMEYTEVISQRMRVP", "note": "[G16V]", "protein stability index": 2.07}, {"variant": "MAEISRIQYEMEYTEQISQRMRVP", "note": "[G16Q]", "protein stability index": 2.29}, {"variant": "MAEISRIQYEMEYTEMISQRMRVP", "note": "[G16M]", "protein stability index": 1.88}, {"variant": "MAEISRIQYEMEYTEGISQRMRVC", "note": "[P24C]", "protein stability index": 1.93}, {"variant": "MAEISRIQYEMEYTEGISQRMRVL", "note": "[P24L]", "protein stability index": 2.16}, {"variant": "MAEISRIQYEMEYTEGISQRMRVT", "note": "[P24T]", "protein stability index": 3.42}, {"variant": "MAEISRIQYEMEYTEGISQRMRVV", "note": "[P24V]", "protein stability index": 1.84}, {"variant": "MAEISRIQYEMEYTEGISQRMRVS", "note": "[P24S]", "protein stability index": 2.33}, {"variant": "MAEISRIQYEMEYTEGISQRMRVA", "note": "[P24A]", "protein stability index": 2.16}, {"variant": "MAEISRIQYEMEYTEGISQRMRVE", "note": "[P24E]", "protein stability index": 2.74}, {"variant": "MAEISRIIYEMEYTEGISQRMRVP", "note": "[Q8I]", "protein stability index": 2.52}, {"variant": "MAEISRIHYEMEYTEGISQRMRVP", "note": "[Q8H]", "protein stability index": 2.47}, {"variant": "MAEISRIWYEMEYTEGISQRMRVP", "note": "[Q8W]", "protein stability index": 1.49}, {"variant": "MAEISRIQYEMGYTEGISQRMRVP", "note": "[E12G]", "protein stability index": 2.26}, {"variant": "MAEISRIQYEMAYTEGISQRMRVP", "note": "[E12A]", "protein stability index": 1.82}, {"variant": "MAEISRIQYEMDYTEGISQRMRVP", "note": "[E12D]", "protein stability index": 2.53}, {"variant": "MAEISRIQYEMEYTEGISQRMFVP", "note": "[R22F]", "protein stability index": 1.69}, {"variant": "MAEISRIQYEMEYTEGISQRMNVP", "note": "[R22N]", "protein stability index": 2.36}, {"variant": "MAEISRIQYEMEYTEGISQRMSVP", "note": "[R22S]", "protein stability index": 2.44}, {"variant": "MAEISRIQYEMEYTEGISQRMQVP", "note": "[R22Q]", "protein stability index": 2.43}, {"variant": "MAEISRKQYEMEYTEGISQRMRVP", "note": "[I7K]", "protein stability index": 3.34}, {"variant": "MAEISRCQYEMEYTEGISQRMRVP", "note": "[I7C]", "protein stability index": 2.56}, {"variant": "MAEISRAQYEMEYTEGISQRMRVP", "note": "[I7A]", "protein stability index": 3.22}, {"variant": "MAEISRVQYEMEYTEGISQRMRVP", "note": "[I7V]", "protein stability index": 2.64}, {"variant": "MAEISRIQYEMEYEEGISQRMRVP", "note": "[T14E]", "protein stability index": 3.22}, {"variant": "MAEISRIQYEMEYGEGISQRMRVP", "note": "[T14G]", "protein stability index": 2.75}, {"variant": "MAEISRIQYEMEYDEGISQRMRVP", "note": "[T14D]", "protein stability index": 4.16}, {"variant": "MAEISRIQYEMEYAEGISQRMRVP", "note": "[T14A]", "protein stability index": 2.68}, {"variant": "MAEISRIQYEMEYPEGISQRMRVP", "note": "[T14P]", "protein stability index": 2.55}, {"variant": "MAEISQIQYEMEYTEGISQRMRVP", "note": "[R6Q]", "protein stability index": 3.34}, {"variant": "MAEISYIQYEMEYTEGISQRMRVP", "note": "[R6Y]", "protein stability index": 1.53}, {"variant": "MAEISCIQYEMEYTEGISQRMRVP", "note": "[R6C]", "protein stability index": 2.97}, {"variant": "MAEICRIQYEMEYTEGISQRMRVP", "note": "[S5C]", "protein stability index": 1.88}, {"variant": "MAEIQRIQYEMEYTEGISQRMRVP", "note": "[S5Q]", "protein stability index": 2.36}, {"variant": "MAEIYRIQYEMEYTEGISQRMRVP", "note": "[S5Y]", "protein stability index": 1.6}, {"variant": "MAEIRRIQYEMEYTEGISQRMRVP", "note": "[S5R]", "protein stability index": 2.75}, {"variant": "MAEISRIQYEMEYTEGISFRMRVP", "note": "[Q19F]", "protein stability index": 1.56}, {"variant": "MAEISRIQYEMEYTEGISSRMRVP", "note": "[Q19S]", "protein stability index": 2.56}, {"variant": "MAEISRIQYEMEYTEGISYRMRVP", "note": "[Q19Y]", "protein stability index": 1.81}, {"variant": "MAEISRIQYEMEYTEGISDRMRVP", "note": "[Q19D]", "protein stability index": 3.16}, {"variant": "MAEISRIQYEMEYTEGISGRMRVP", "note": "[Q19G]", "protein stability index": 2.81}, {"variant": "MAEISRIQYEMEYTEGISWRMRVP", "note": "[Q19W]", "protein stability index": 2.16}, {"variant": "MAEYSRIQYEMEYTEGISQRMRVP", "note": "[I4Y]", "protein stability index": 2.8}, {"variant": "MAEPSRIQYEMEYTEGISQRMRVP", "note": "[I4P]", "protein stability index": 3.55}, {"variant": "MAHISRIQYEMEYTEGISQRMRVP", "note": "[E3H]", "protein stability index": 2.93}, {"variant": "MAWISRIQYEMEYTEGISQRMRVP", "note": "[E3W]", "protein stability index": 1.57}, {"variant": "MAEISRIQYEMEYTIGISQRMRVP", "note": "[E15I]", "protein stability index": 2.11}, {"variant": "MAEISRIQYEMEYTLGISQRMRVP", "note": "[E15L]", "protein stability index": 1.66}, {"variant": "MAEISRIQYEMEYTMGISQRMRVP", "note": "[E15M]", "protein stability index": 1.75}, {"variant": "MAEISRIQYEMEYTWGISQRMRVP", "note": "[E15W]", "protein stability index": 1.77}, {"variant": "MAEISRIQYEMEYTTGISQRMRVP", "note": "[E15T]", "protein stability index": 2.56}, {"variant": "MAEISRIQYEMEYTCGISQRMRVP", "note": "[E15C]", "protein stability index": 1.46}, {"variant": "MAEISRIQYEMEYTEGIRQRMRVP", "note": "[S18R]", "protein stability index": 2.27}, {"variant": "MAEISRIQYEMEYTEGIEQRMRVP", "note": "[S18E]", "protein stability index": 3.04}, {"variant": "MAEISRIQYEMEYTEGITQRMRVP", "note": "[S18T]", "protein stability index": 2.6}, {"variant": "MAEISRIQYEMEYTEGICQRMRVP", "note": "[S18C]", "protein stability index": 2.41}, {"variant": "MAEISRIQYEMEYTEGIHQRMRVP", "note": "[S18H]", "protein stability index": 2.13}, {"variant": "MAEISRIQYNMEYTEGISQRMRVP", "note": "[E10N]", "protein stability index": 2.55}, {"variant": "MAEISRIQYTMEYTEGISQRMRVP", "note": "[E10T]", "protein stability index": 1.99}, {"variant": "MAEISRIQYLMEYTEGISQRMRVP", "note": "[E10L]", "protein stability index": 1.66}, {"variant": "MAEISRIQYEMEYTEGISQRMRDP", "note": "[V23D]", "protein stability index": 3.23}, {"variant": "MAEISRIQYEMEYTEGISQRMRQP", "note": "[V23Q]", "protein stability index": 2.99}, {"variant": "MAEISRIQYEMEYTEGISQRMRIP", "note": "[V23I]", "protein stability index": 2.07}, {"variant": "SAEISRIQYEMEYTEGISQRMRVP", "note": "[M1S]", "protein stability index": 3.01}, {"variant": "GAEISRIQYEMEYTEGISQRMRVP", "note": "[M1G]", "protein stability index": 3.14}, {"variant": "WAEISRIQYEMEYTEGISQRMRVP", "note": "[M1W]", "protein stability index": 2.35}, {"variant": "FAEISRIQYEMEYTEGISQRMRVP", "note": "[M1F]", "protein stability index": 1.97}]}]}
